From article PMC9943653 come the findings set out here.

As usually defined, the Kd is a measure of binding affinity in units of concentration. Low values mean higher affinity, high ones lower affinity.

Data set [1] has as its system Gal4 (1-147). The experiment in a line: single-molecule FRET. Particulars: EMSA: 10 mM Tris-HCl pH 8, 130 mM NaCl, 10% glycerol, 0.0075% Tween-20, 0.5 nM DNA or nucleosome, smFRET: same Tris/NaCl/glycerol with 0.5% Tween-20, 0.1 mg/ml …. On the technique in general: A gel shift assay detects complexes by their altered migration in electrophoresis.
For data set [2], the system named is Gal4 (1-147). The experiment in a line: ensemble FRET. Particulars: EMSA: 10 mM Tris-HCl pH 8, 130 mM NaCl, 10% glycerol, 0.0075% Tween-20, 0.5 nM DNA or nucleosome, smFRET: same Tris/NaCl/glycerol with 0.5% Tween-20, 0.1 mg/ml ….

On to P31 nucleosome, 222 bp, for which the dissociation constant Kd in the data set on Gal4 (1-147) [1] (kon eff 0.0008 nM-1 s-1, koff 0.83 s-1) came out at 980 nM.
P33 nucleosome, full Gal4 site had a K half with Gal4 (1-147) [2] of 240 nM.
For P26 nucleosome D17, the K half in the data set with Gal4 (1-147) [2] (amino-C6-dT at nt 17 of strand 1) was found to be 9 nM.
P36 nucleosome, full Gal4 site had a K half in the data set on Gal4 (1-147) [2] of 290 nM.
In the data set on Gal4 (1-147) [2] (text prints P29), “P28 nucleosome, full Gal4 site (called P29 once in text)” returned a K half of 1.7 nM.
P31 nucleosome, full Gal4 site gave a K half with Gal4 (1-147) [2] of 500 nM.
For the substance P26 nucleosome, 222 bp, the Kd in the data set with Gal4 (1-147) [1] (kon eff 0.11 nM-1 s-1, koff 0.66 s-1) stood at 6.1 nM.
With P26 nucleosome, full Gal4 site (D1), the K half in the data set with Gal4 (1-147) [2] amounted to 4.3 nM.
In the data set on Gal4 (1-147) [1] (kon eff 0.004 nM-1 s-1, koff 1.03 s-1), P36 nucleosome, 222 bp displayed a Kd of 260 nM.
